Data published in US20240207311A1, “TUMOR INFILTRATING LYMPHOCYTES THERAPY” (Alethia Biotherapeutics Inc., priority 2021, published 2024).
“Also recorded” adds a separate entry of the source.

B1: AB-16B5: anti-clusterin antibody, murine 16B5 (VL SEQ ID NO:7, VH SEQ ID NO:8), used in the mouse studies (antibody, V domains shown)
VH: EVQLQQSGAELVKPGASVRLSCTTSGFNIKDIYMHWVKQRPEQGLEWIGRIDPAYGNTKYDPKFQGKATITADTSSNTAYLQLSSLTSEDTAVYYCARRYDTAMDYWGQGTSVTVSS
VL: DIVMSQSPSSLAVSAGEKVTMSCKSSQSLLNSRTRKNYLAWYQQKPGQSPKLLIYWASTRESGVPDRFTGSGSGTDFTLTISSVQAEDLAVYYCKQSYNLWTFGGGTKLEFK
modifications: Murine 16B5 VH; Murine 16B5 VL

Tests used:
Type in all cases: in vivo, Balb/c mice
4T1 primary tumors = assay: CD45+ immune cells purified from excised 4T1 primary tumors (Example 2); conditions: monotherapy (Group 2 docetaxel; Group 5 AB-16B5); primary tumors excised at Day 16
Excerpt: The primary tumors excised at Day 16 post implantation, were processed with collagenase and hyaluronidase and immune cells were purified by positive selection using magnetic latex beads coated with an anti-CD45 antibody. The purified cells were transferred into small petri dishes containing culture medium supplemented with IL2 and IL7 to perform phenotypic analyses.

[1] = system: 4T1 mouse mammary carcinoma cells; assay: Number of metastatic lung nodules in 4T1-implanted animals (Example 2); conditions: monotherapy IP for 5 weeks (Group 2 docetaxel 10 mg/kg weekly; Group 5 AB-16B5 twice weekly); counted Day 37
Method: Five groups, each consisting of 10 female Balb/c mice were assigned to this study (see Table 1 below). All animals received subcutaneous implantation of 4T1 mouse mammary carcinoma cells in the 4th inguinal mammary gland. Treatment was initiated on the day of implantation (defined as Day 1). Animals from Group 1 (Gr. 1) received IP treatment of saline vehicle control twice a week for the duration of the study. Animals from Group 2 (Gr. 2) received 10 mg/kg of docetaxel weekly for five weeks by IP administration. Animals from Group 3 (Gr. 3) received 10 mg/kg of docetaxel weekly for two weeks and 10 mg/kg of AB-16B5, twice weekly for five weeks. Animals from Group 4 (Gr. 4) received 10 mg/kg of docetaxel weekly and 5 mg/kg of 16B5 twice weekly each over the course of a five weeks treatment. Animals from Group 5 (Gr. 5) received AB-16B5 twice weekly for five weeks. On Day 36, the primary tumors were excised and on Day 37, the animals were sacrificed and the number of grossly visible metastatic nodules on the surface of the lungs was counted.

4T1 lung metastases = assay: Immunohistochemistry of lung metastases in 4T1-implanted mice (Example 1); conditions: 10 mg/kg IP thrice a week
Excerpt: Balb/c mice were orthotopically implanted with 5×10^5 4T1 cells in the 4th mammary fat pad. Animals received IP saline treatment thrice weekly. The primary tumor was surgically removed at Day 16 post-implantation. The animals were sacrificed at Day 36 and the lungs were excised. Tissues were fixed in paraformaldehyde and processed for paraffin embedding. Tissue sections were probed with anti-mouse CD3, anti-mouse CD8 and anti-mouse B220 antibodies. […] Results presented in FIG. 1 indicate that the 4T1 lung metastases create an immune cold microenvironment which prevents the infiltration of B and T lymphocytes in tumors. Delineated regions indicate that CD3 and CD8 T lymphocytes are restricted in the tumor margin as a consequence of EMT.
Animals bearing 4T1 tumors were treated with the AB-16B5 antibody (murine 16B5) thrice a week IP at 10 mg/kg. The primary tumor was surgically removed at Day 16 post-implantation. The animals were sacrificed at Day 36 and the lungs were excised. Tissues were fixed in paraformaldehyde and processed for paraffin embedding. Tissue sections were probed with anti-mouse CD3, anti-mouse CD8 and anti-mouse B220 antibodies.

Molecule | CD45+ immune cells in primary tumors (4T1 primary tumors) | metastatic lung nodules [1] | plasmocytes penetration in tumors (4T1 lung metastases; Day 36) | T lymphocyte infiltration of lung metastases (4T1 lung metastases; Day 36, anti-CD3, anti-CD8 staining) | lung metastases (number and size) (4T1 lung metastases; lungs excised Day 36, FIG. 2)
CC(=O)O[C@@]12CO[C@@H]1C[C@H](O)[C@@]1(C)C(=O)[C@H](O)C3=C(C)[C@@H](OC(=O)[C@H](O)[C@@H](NC(=O)OC(C)(C)C)c4ccccc4)C[C@@](O)([C@@H](OC(=O)c4ccccc4)[C@H]21)C3(C)C [docetaxel] | very few CD45+ were present | as many metastatic lung nodules as the saline control group; also recorded: relatively ineffective | – | – | –
B1 | more immune cells | less metastatic lung nodules than the saline-control-treated mice | evidence of plasmocytes penetration | densely infiltrated with CD3 and CD8 T cells | fewer and much smaller lung metastases
